Assays:
Type in all cases: physicochemical
[1] = Solution phase stability of free base, methanesulfonic acid salt and nitric acid salt (HPLC), Example 17; conditions: solution in distilled water, 25±0.5° C.
Description: (§1) All HPLC spectra were taken on a Waters HPLC that included Breeze software, a Waters 2487 Dual λ Absorbance Detector, a Waters 1525 Binary HPLC Pump, and a Waters 717 plus Autosampler. The column was a Phenomenex Synergi 4μ Hydro-RP 80A, 250×4.60 mm 4μ micron. The 40 minute gradient that was used is described in the table below.
A t=0 h timepoint was taken for each solution. The volumetric flasks were placed in a water bath at 25±0.5° C. and, periodically, a 0.7 mL aliquot was removed and the solution analyzed by HPLC as described in Example 15.

[2] = Solid phase stability of free base, methanesulfonic acid salt and nitric acid salt (HPLC), Example 18; conditions: solid stored at 25±0.5° C.
Description: as §1

[3] = Solution phase stability of free base and hydrochloride salt (monomer vs dimer by HPLC), Example 15; conditions: solution in distilled water, 25±1° C.
Description: A 1.657 mM solution of Ac—PHSCN—NH2 in distilled water and a 1.653 mM solution of the hydrochloride salt of Ac—PHSCN—NH2 in distilled water were placed in a water bath at 25±1° C. Aliquots (800 μL) were periodically removed and the amount of dimerization was determined by HPLC.
as §1
Mobile Phase A: 0.1% TFA in acetonitrile Mobile Phase B: 0.1% TFA in water
(§2) The HPLC peak for Ac-Pro-His-Ser-Cys-Asn-NH2 monomer at approximately 9.2 minutes, and the peak for ATN-161 dimer at approximately 10.0 minutes were integrated in order to determine the percentage of these two species in each sample.

[4] = Solid phase stability of free base and hydrochloride salt (monomer vs dimer by HPLC), Example 16; conditions: solid stored at 25±1° C.
Description: as §1, §2
Samples of 0.8-1.2 mg of Ac—PHSCN—NH2 and Ac—PHSCN—NH2 hydrochloride salt were weighed into HPLC sample vials and stored at 25±1° C. A 0 h time point was taken. Samples were periodically removed and diluted with distilled water to give a 1 mg/mL solution. The amount of dimerization was determined by HPLC as described in Example 15. The results are illustrated graphically in FIG. 3.

Ac-Pro-His-Ser-Cys-Asn-NH2 Methanesulfonic Acid Salt (Ac-PHSCN-NH2; also: methanesulfonic acid salt)
% dimer ([1]; 0 h): 7.4% | % monomer ([1]; 0 h): 92.6% | % dimer ([1]; 69 h): 22.6% | % monomer ([1]; 69 h): 77.4% | % dimer ([1]; 140 h): 30.3% | % monomer ([1]; 140 h): 69.7% | % dimer ([1]; 213 h): 37.2% | % monomer ([1]; 213 h): 62.8% | % dimer ([1]; 332 h): 48.0% | % monomer ([1]; 332 h): 52.0% | % dimer ([1]; 408 h): 54.5% | % monomer ([1]; 408 h): 45.5% | % dimer ([1]; 479 h): 60.5% | % monomer ([1]; 479 h): 39.5% | % dimer ([1]; 549 h): 66.7% | % monomer ([1]; 549 h): 33.3% | % dimer ([1]; 645 h): 74.3% | % monomer ([1]; 645 h): 25.7% | % dimer ([1]; 720 h): 79.5% | % monomer ([1]; 720 h): 20.5% | % dimer ([1]; 836 h): 84.8% | % monomer ([1]; 836 h): 15.2% | % dimer ([2]; 0 h): 6.8% | % monomer ([2]; 0 h): 93.2% | % dimer ([2]; 161 h): 7.2% | % monomer ([2]; 161 h): 92.8% | % dimer ([2]; 335 h): 7.5% | % monomer ([2]; 335 h): 92.5% | % dimer ([2]; 498 h): 7.0% | % monomer ([2]; 498 h): 93.0% | % dimer ([2]; 670 h): 7.7% | % monomer ([2]; 670 h): 92.3% | % dimer ([2]; 832 h): 7.2% | % monomer ([2]; 832 h): 92.8% | % dimer ([2]; 1003 h): 7.2% | % monomer ([2]; 1003 h): 92.8% | % dimer ([2]; 1170 h): 7.3% | % monomer ([2]; 1170 h): 92.7% | % dimer ([2]; 1363 h): 8.6% | % monomer ([2]; 1363 h): 91.4% | % dimer ([2]; 1506 h): 7.6% | % monomer ([2]; 1506 h): 92.4% | % dimer ([2]; 1698 h): 8.1% | % monomer ([2]; 1698 h): 91.9%

Ac-Pro-His-Ser-Cys-Asn-NH2, hydrochloride salt (Ac-PHSCN-NH2; also: hydrochloride salt)
% dimer ([3]; 0 h): 0% | % monomer ([3]; 0 h): 100% | % dimer ([3]; 69 h): 3.3% | % monomer ([3]; 69 h): 96.7% | % dimer ([3]; 140 h): 6.1% | % monomer ([3]; 140 h): 93.9% | % dimer ([3]; 188 h): 6.4% | % monomer ([3]; 188 h): 93.6% | % dimer ([3]; 236 h): 6.8% | % monomer ([3]; 236 h): 93.2% | % dimer ([3]; 309 h): 6.7% | % monomer ([3]; 309 h): 93.3% | % dimer ([3]; 357 h): 6.7% | % monomer ([3]; 357 h): 93.3% | % dimer ([3]; 404 h): 7.3% | % monomer ([3]; 404 h): 92.7% | % dimer ([3]; 477 h): 8.4% | % monomer ([3]; 477 h): 91.6% | % dimer ([3]; 525 h): 9.0% | % monomer ([3]; 525 h): 91.0% | % dimer ([3]; 622 h): 10.7% | % monomer ([3]; 622 h): 89.3% | % dimer ([4]; 0 h): 0% | % monomer ([4]; 0 h): 100% | % dimer ([4]; 73 h): 0% | % monomer ([4]; 73 h): 100% | % dimer ([4]; 143 h): 0% | % monomer ([4]; 143 h): 100% | % dimer ([4]; 243 h): 0% | % monomer ([4]; 243 h): 100% | % dimer ([4]; 312 h): 0% | % monomer ([4]; 312 h): 100% | % dimer ([4]; 410 h): 0% | % monomer ([4]; 410 h): 100% | % dimer ([4]; 576 h): 0.3% | % monomer ([4]; 576 h): 99.7% | % dimer ([4]; 677 h): 0.7% | % monomer ([4]; 677 h): 99.3% | % dimer ([4]; 818 h): 0% | % monomer ([4]; 818 h): 100%
